According to article PMC6335420, “The cell cycle regulator GpsB functions as cytosolic adaptor for multiple cell wall enzymes” (Nature Communications, 2019):
Non-standard residues stand in square brackets, D forms with d. Residues, ends and D or L forms follow the SMILES beside them. No end group written: not given here. *: point of attachment. Fluorescein(5-Mal) = O=C1OC2(c3ccc(O)cc3Oc3cc(O)ccc32)c2ccc(N3C(=O)CC(*)C3=O)cc21; 5FAM = O=C1OC2(c3ccc(O)cc3Oc3cc(O)ccc32)c2ccc(C(=O)*)cc21; C(fluorescein) = cysteine carrying a fluorescein label; Nle = CCCC[C@H](N)C(=O)O

Experiments:
[1] = target: TAMRA-SpPBP2a23-45 Arg31LysArg33Lys (S. pneumoniae R6); assay: fluorescence polarisation
[2] = target: Fluorescein-SpPBP2x1-29 (S. pneumoniae R6); assay: fluorescence polarisation
[3] = target: TAMRA-SpPBP2a23-45 Arg33Lys (S. pneumoniae R6); assay: fluorescence polarisation
[4] = target: TAMRA-SpPBP2a23-45 Arg36Ala (S. pneumoniae R6); assay: fluorescence polarisation
[5] = target: TAMRA-SpPBP2a23-45 Arg31Lys (S. pneumoniae R6); assay: fluorescence polarisation
[6] = target: TAMRA-SpPBP2a23-45 Arg33Ala (S. pneumoniae R6); assay: fluorescence polarisation
[7] = target: TAMRA-SpPBP2a23-45 Ser32Ala (S. pneumoniae R6); assay: fluorescence polarisation
BsGpsB1-68Tyr25Phe = target: T1, BsGpsB1-68Tyr25Phe (Bacillus subtilis, UniProt P0CI74, Y25F); assay: Fluorescence polarisation binding to BsGpsB1-68Tyr25Phe; conditions: FP, BsGpsB Tyr25Phe relative to wild-type BsGpsB1-68
T1 construct: correspond to BsGpsB1-68^Asp31Ala and BsGpsB1-68^Tyr25Phe mutants, respectively; His6 (N, cleaved yes); made in house; host or cells: E. coli BL21(DE3)
Text: (§1) 75 the BsGpsB5-64:BsPBP11-17 complex.

BsGpsB1-68Asp31Ala = target: T2, BsGpsB1-68Asp31Ala (Bacillus subtilis, UniProt P0CI74, D31A); assay: Fluorescence polarisation binding to BsGpsB1-68Asp31Ala; conditions: FP, BsGpsB Asp31Ala relative to wild-type BsGpsB1-68
T2 construct: Glu17Ala, Asp31Ala and Asp35Ala mutations were introduced to the BsGpsB1-68 expression construct plasmid; His6 (N, cleaved yes); made in house; host or cells: E. coli BL21(DE3)
Text: as §1

[8] = target: TAMRA-SpPBP2a23-45 wildtype (S. pneumoniae R6); assay: fluorescence polarisation
[9] = target: Fluorescein-LmPBPA11-20 wildtype (L. monocytogenes EGD-e); assay: fluorescence polarisation
[10] = target: Fluorescein-LmPBPA11-20 Arg12Ala (L. monocytogenes EGD-e); assay: fluorescence polarisation
[11] = target: Fluorescein-LmPBPA11-20 Arg8Ala (L. monocytogenes EGD-e); assay: fluorescence polarisation
[12] = target: Fluorescein-LmPBPA11-20 Arg8AlaSer16Arg (L. monocytogenes EGD-e); assay: fluorescence polarisation
SpGpsB_(1-63) = target: T3, SpGpsB_(1-63) (S. pneumoniae R6, UniProt Q8DR57 1-63); assay: fluorescence polarisation; conditions: both partners purified
T3 construct: GpsB, Streptococcus pneumoniae R6, residues 1-63 (stop codon in place of Pro64); also called N-terminal domain of SpGpsB; wildtype SpGpsB_(1-63); source: E. coli, purified (Ni-NTA, thrombin, ammonium sulphate precipitation, gel filtration)
T3 sequence (looked up): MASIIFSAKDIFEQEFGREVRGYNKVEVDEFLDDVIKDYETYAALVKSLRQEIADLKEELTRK

BsGpsB1-68 Asp31Ala = target: T4, BsGpsB1-68 Asp31Ala (B. subtilis, UniProt P0CI74 1-68, Asp31Ala); assay: fluorescence polarisation; GpsB protein titrated into TAMRA- or fluorescein-labelled peptide; 10 mM Tris.HCl pH 8.0, 250 mM NaCl, 0.1% reduced Triton X-100; all data fitted to a 1:1 interaction model, Kd ± standard error; conditions: both partners purified
T4 construct: GpsB, Bacillus subtilis, residues 1-68 (N-terminal domain); also called BsGpsB1-68 D31A; source: E. coli BL21(DE3), purified (Ni-NTA, thrombin removal of the His6-tag, SEC); not shown: His6, N-terminal, cleaved
T4 sequence (looked up): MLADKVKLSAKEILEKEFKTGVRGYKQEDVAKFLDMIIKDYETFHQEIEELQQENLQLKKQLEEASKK

BsGpsB1-68 Tyr25Phe = target: T5, BsGpsB1-68 Tyr25Phe (B. subtilis, UniProt P0CI74 1-68, Tyr25Phe); assay: as above; conditions: both partners purified
T5 construct: GpsB, Bacillus subtilis, residues 1-68 (N-terminal domain); also called BsGpsB1-68 Y25F; source: E. coli BL21(DE3), purified (Ni-NTA, thrombin removal of the His6-tag, SEC); not shown: His6, N-terminal, cleaved
T5 sequence (looked up): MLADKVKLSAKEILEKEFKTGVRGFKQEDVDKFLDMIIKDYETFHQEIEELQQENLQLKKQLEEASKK

[13] = target: T6, BsYrrS_(1-18), fluorescein-labelled (B. subtilis, UniProt O32031 1-18, also: fluorescein label, position not given here); assay: fluorescence polarisation; GpsB protein titrated into fluorescently labelled peptide; 10 mM Tris.HCl pH 8.0, 250 mM NaCl, 0.1% reduced Triton X-100; fit to a 1:1 interaction model; conditions: both partners purified
T6 construct: YrrS, Bacillus subtilis, residues 1-18; also called entire cytoplasmic mini-domain of BsYrrS
T6 peptide (looked up): MSNNQSRYENRDKRRKAN

[14] = target: T7, BsPBP1_(1-32), TAMRA-labelled at position 16 (B. subtilis, UniProt P39793 1-32, Ser16Cys, TAMRA (maleimide) at position 16); assay: as above; conditions: both partners purified
T7 construct: PBP1, Bacillus subtilis, residues 1-32; also called BsPBPA1_(1-32); BsPBP1A_(1-32); source: E. coli, His-tagged MBP fusion purified (Ni-NTA), labelled, TEV-cleaved, ultrafiltration
T7 peptide (looked up): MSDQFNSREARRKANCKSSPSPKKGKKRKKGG

[15] = target: T8, BsYpbE_(1-21), fluorescein-labelled (B. subtilis, UniProt P50731 1-21, fluorescein (position not given)); assay: fluorescence polarisation; conditions: both partners purified
T8 construct: also called 21-residue fragment of the cytoplasmic domain of BsYpbE; source: synthetic peptide
T8 peptide: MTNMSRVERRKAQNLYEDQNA

BsGpsB = target: T9, BsGpsB (Bacillus subtilis, UniProt P0CI74); assay: BACTH interaction with BsGpsB; format: cell-based; conditions: E. coli BTH101, nutrient agar, 30 °C
T9 construct: new FP data concerning full length BsGpsB have now been added to; made in house; host or cells: E. coli BL21(DE3)

full-length BsPBP1 = assay: SPR binding to immobilised full-length BsPBP1; parameters: species or system Bacillus subtilis; conditions: SPR, PBP1-coated chip; full-length GpsB data fit 1:1 only over limited concentration range (avidity), BsGpsB1-68 supports 1:1; peer review file; read-out: affinity / Kd by SPR
Text: BsPBP1 and BsPBP1_17-914 were immobilised on the surface of a CM5 chip (GE Healthcare). For the BsPBP1/YrrSΔ13-16 titration 800 RUs of BsPBP1 were immobilised on the chip surface; for the BsPBP1/BsGpsB titration 1200 RUs of BsPBP1 were immobilised. YrrSΔ13-16, which lacks residues 13–16 in the cytoplasmic domain, was used in these experiments to minimise non-specific interactions with the chip matrix; binding of YrrSΔ13-16 to the reference surface was negligible and the deletion of residues 13–16 leaves the GpsB-binding motif intact. The YrrSΔ13-16 titration was carried out in single-cycle mode, without regenerating the surface between successive injections of protein, because harsh reagents were necessary for full surface regeneration.

T9 sequence (P0CI74 whole entry): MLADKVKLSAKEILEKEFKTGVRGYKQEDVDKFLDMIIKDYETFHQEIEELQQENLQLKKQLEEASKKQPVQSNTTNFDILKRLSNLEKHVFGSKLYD

SpGpsB1-63 (domain or fragment)
Kd [1]: > 2000 µM
Kd [2]: 370 µM
Kd [3]: 360 µM
Kd [4]: 270 µM
Kd [5]: 150 µM
Kd [6]: 530 µM
Kd [7]: 210 µM

CSCC[C@H](NC(=O)[C@H](CO)NC(=O)CN)C(=O)NCC(=O)N[C@@H](CC(N)=O)C(=O)N[C@@H](CC(N)=O)C(=O)N[C@@H](CCC(N)=O)C(=O)N[C@@H](CO)C(=O)N[C@@H](CCCNC(=N)N)C(=O)N[C@@H](Cc1ccc(O)cc1)C(=O)N[C@@H](CCC(=O)O)C(=O)N[C@@H](CC(N)=O)C(=O)N[C@@H](CCCNC(=N)N)C(=O)N[C@@H](CC(=O)O)C(=O)N[C@@H](CCCCN)C(=O)N[C@@H](CCCNC(=N)N)C(=O)N[C@@H](CCCNC(=N)N)C(=O)N[C@@H](CCCCN)C(=O)N[C@@H](C)C(=O)N[C@@H](CC(N)=O)C(=O)N[C@@H](CSC1CC(=O)N(c2ccc3c(c2)C(=O)OC32c3ccc(O)cc3Oc3cc(O)ccc32)C1=O)C(=O)NCC(=O)O (stereo partly drawn) [Fluoroescein-BsYrrS1-18] (H-GSMGNNQSRYENRDKRRKANC(Fluorescein(5-Mal))G-OH; N-terminus and C-terminus assumed)
reduction in affinity on GpsB mutation (BsGpsB1-68Tyr25Phe): 7 fold
reduction in affinity on GpsB mutation (BsGpsB1-68Asp31Ala): 7 fold

SpGpsB1-63 Asp33Ala (domain or fragment)
Kd [8]: > 3000 µM

LmGpsB1-73 (from UniProt Q8Y614 1-73) (domain or fragment)
Kd [9]: 200 µM

BsGpsB1-68 Lys32Glu (from UniProt P0CI74 1-68) (domain or fragment)
Kd [10]: 800 µM
Kd [11]: > 3000 µM
Kd [9]: 190 µM
Kd [12]: > 2000 µM

CCCC[C@H](NC(=O)c1ccc2c(c1)C(=O)OC21c2ccc(O)cc2Oc2cc(O)ccc21)C(=O)N[C@H](C(=O)N[C@@H](CC(N)=O)C(=O)N[C@@H](CCCC)C(=O)N[C@@H](CO)C(=O)N[C@@H](CCCNC(=N)N)C(=O)N[C@H](C(=O)N[C@@H](CCC(=O)O)C(=O)N[C@@H](CCCNC(=N)N)C(=O)N[C@@H](CCCNC(=N)N)C(=O)N[C@@H](CCCCN)C(=O)N[C@@H](C)C(=O)N[C@@H](CCC(N)=O)C(=O)N[C@@H](CC(N)=O)C(=O)N[C@@H](CC(C)C)C(=O)N[C@@H](Cc1ccc(O)cc1)C(=O)N[C@@H](CCC(=O)O)C(=O)N[C@@H](CC(=O)O)C(=O)N[C@@H](CCC(N)=O)C(=O)N[C@@H](CC(N)=O)C(=O)N[C@@H](C)C(=O)O)C(C)C)[C@@H](C)O [Fluoroescein-BsYpbE1-21] (5FAM-[Nle]TN[Nle]SRVERRKAQNLYEDQNA-OH; N-terminus and C-terminus assumed)
reduction in affinity on GpsB mutation (BsGpsB1-68Tyr25Phe): ~ 40 fold
reduction in affinity on GpsB mutation (BsGpsB1-68Asp31Ala): ~ 40 fold

B1: SpPBP2a_(23-45), TAMRA-labelled (peptide)
peptide: DSDSTILRRSRSDRKKLAQVCPI
modifications: also: TAMRA (maleimide) label, site not given here
notes: source: E. coli, His-tagged MBP fusion purified (Ni-NTA), labelled, TEV-cleaved, ultrafiltration
Kd (SpGpsB_(1-63)): 80 µM

B2: SpPBP2x_(1-29), fluorescently labelled (peptide)
peptide: GSGMKWTKRVIRYATKNRKSPAENRRRVGKSLCS
modifications: also: TAMRA or fluorescein maleimide label, which one and site not given here
notes: as for B1
binding result (SpGpsB_(1-63)): binds

B3: Fluoroescein-BsYrrS1-18 (peptide)
chain: MSNNQSRYENRDKRRKAN-{C(fluorescein)}
Kd (BsGpsB1-68 Asp31Ala): > 3000 µM
Kd (BsGpsB1-68 Tyr25Phe): > 3000 µM

B4: BsGpsB_(1-68)^Asp31Ala (domain or fragment, B. subtilis, UniProt P0CI74 1-68, looked up)
chain: MLADKVKLSAKEILEKEFKTGVRGYKQEDVAKFLDMIIKDYETFHQEIEELQQENLQLKKQLEEASKK
notes: GpsB, Bacillus subtilis, residues 1-68; also called BsGpsB^Asp31Ala; source: E. coli, purified (Ni-NTA, thrombin, size exclusion)
fold reduction in affinity against wild type [13]: 7 fold
fold reduction in affinity against wild type [14]: > 8 fold
fold reduction in affinity against wild type [15]: ~40 fold

B5: BsGpsB_(1-68)^Tyr25Phe (domain or fragment, B. subtilis, UniProt P0CI74 1-68, looked up)
chain: MLADKVKLSAKEILEKEFKTGVRGFKQEDVDKFLDMIIKDYETFHQEIEELQQENLQLKKQLEEASKK
notes: GpsB, Bacillus subtilis, residues 1-68; the making of this mutant is not described in the methods; also called BsGpsB^Tyr25Phe; source: E. coli, purified (Ni-NTA, thrombin, size exclusion)
fold reduction in affinity against wild type [13]: 7 fold
fold reduction in affinity against wild type [14]: > 8 fold
fold reduction in affinity against wild type [15]: ~40 fold

B6: BsYrrS: B. subtilis YrrS (protein, UniProt O32031 1-233, looked up)
Uncharacterized membrane …: MSNNQSRYENRDKRRKANLVLNILIAIVSILIVVVAANLFINSPSSKDVSKDSETAQKQESPASGKTEKKSDEDIKDSKKDTSDSEKDSEKSSDSDSKKDDSSSKKDDSDSDSSSDSAGDGLKDAKVTEGGSSSDVEKTYENPDWKAVGTEQTGEHAATYDSSSQDWAEMLKAISYATGVSTDNMTVLWLGNNGSPQDAKGKILDKATGNKYQVTITWVDEKGWKPTKVEKLK
BACTH interaction with BsGpsB (BsGpsB): detected

B7: BsYpbE: B. subtilis YpbE, LysM-domain membrane protein (protein, UniProt P50731 1-240, looked up)
Uncharacterized protein YpbE: MTNMSRVERRKAQNLYEDQNAALADDYVDDGESLPTRQSVKNQREQKKKQGKTKTPLFTVLAVIFVFVPVIVLVTLFYLKSHPDNHDDYEDVFIDSSQSKYEVVPKSEDKNDTADTKETALQKESKKEPEDSKPKEQTAADKKQTAVAEKEDSPNKEEATAAAASSSQSTVQQQEQPAEPVQNVPNRVVKHTVQKKETLYRISMKYYKSRTGEEKIRAYNHLNGNDVYTGQVLDIPLMDE
BACTH interaction with BsGpsB (BsGpsB): detected

B8: BsGpsB1-68: N-terminal domain of B. subtilis GpsB (protein)
chain: MLADKVKLSAKEILEKEFKTGVRGYKQEDVDKFLDMIIKDYETFHQEIEELQQENLQLKKQLEEASKK
modifications: left off: His6, N-terminal, cleaved
notes: N-terminal domain of B. subtilis GpsB
Kd (full-length BsPBP1): 40 µM
